The assay has as its target CD11b/CD18 receptor on J774A.1 murine monocytes/macrophages (murine) (UniProt P05555). Nature of the assay: cell-based or functional assay.

For “CyaA/233OVA/K860R/AC- (from UniProt J7QLC0 1-1706)”, the Lysis of J774A.1 cells (% of AC-) was 72 % of AC-.

The values are drawn from patent US9222143.
